Here are results for 2 substances from paper PMC6769691.

Assay [1] has as its target CD13 (aminopeptidase N), CNGRC-binder isoform, on HUVEC, mesoangioblasts (MB) and MR300 cells (human (endogenous in HUVEC, MB, MR300)) (UniProt P15144).
In assay [2] the target is TNFRs on MR300 cells (human (endogenous in MR300)). The assay is described as follows: immunostaining of cells or tissue; competition on adherent MR300 cells (CNGRC-binder): hTNF-Fc (1:50) staining, 1 h at room temperature, Alexa-594 anti-human antibody, with 0.01 to 30 µg/mL unlabeled NGR-hTNF or hTNF; percent of control.

Sequence of CD13 (aminopeptidase N), CNGRC-binder isoform, on HUVEC, mesoangioblasts (MB) and MR300 cells (human (endogenous in HUVEC, MB, MR300)) (P15144 whole entry, canonical isoform): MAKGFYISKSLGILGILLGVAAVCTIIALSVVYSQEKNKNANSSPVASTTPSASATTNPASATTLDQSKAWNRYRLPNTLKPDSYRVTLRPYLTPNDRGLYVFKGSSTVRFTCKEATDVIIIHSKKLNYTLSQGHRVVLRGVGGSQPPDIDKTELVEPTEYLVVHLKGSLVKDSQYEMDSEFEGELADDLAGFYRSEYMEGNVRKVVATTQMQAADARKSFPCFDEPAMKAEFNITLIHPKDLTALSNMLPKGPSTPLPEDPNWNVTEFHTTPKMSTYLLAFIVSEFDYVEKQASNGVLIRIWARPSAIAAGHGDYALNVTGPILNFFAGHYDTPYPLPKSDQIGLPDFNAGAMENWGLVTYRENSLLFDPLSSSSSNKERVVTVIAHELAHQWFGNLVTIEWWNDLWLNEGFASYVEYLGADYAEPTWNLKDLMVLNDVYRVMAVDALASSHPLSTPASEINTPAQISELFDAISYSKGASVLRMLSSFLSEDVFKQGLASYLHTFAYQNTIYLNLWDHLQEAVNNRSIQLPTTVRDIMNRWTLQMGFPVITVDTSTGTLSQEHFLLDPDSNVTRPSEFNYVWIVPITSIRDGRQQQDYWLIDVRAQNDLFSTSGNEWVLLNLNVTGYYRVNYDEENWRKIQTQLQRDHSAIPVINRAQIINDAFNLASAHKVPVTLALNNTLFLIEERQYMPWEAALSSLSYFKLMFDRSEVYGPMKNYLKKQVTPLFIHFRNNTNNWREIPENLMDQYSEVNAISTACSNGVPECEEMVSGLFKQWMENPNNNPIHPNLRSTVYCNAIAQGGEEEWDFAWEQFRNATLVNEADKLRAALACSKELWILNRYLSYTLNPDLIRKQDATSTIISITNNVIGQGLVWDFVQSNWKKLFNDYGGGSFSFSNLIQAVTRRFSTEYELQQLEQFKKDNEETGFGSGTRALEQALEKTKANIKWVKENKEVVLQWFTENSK

For orientation: IC50 means the concentration that inhibits the measured activity by half. Higher therefore signals lower potency. Regarding NGR-hTNF (ligand), in assay [1], the phosphorylation of Akt-Ser473 in MR300 cells treated with NGR-hTNF in comparison to hTNF (Kinexus phospho-site screen) is -36%, the phosphorylation of Erk1 in MR300 cells treated with NGR-hTNF in comparison to hTNF (Kinexus phospho-site screen) was -36% and the phosphorylation of Erk2 in MR300 cells treated with NGR-hTNF in comparison to hTNF (Kinexus phospho-site screen) was -35%. The IC50 in assay [2] is 5 nM.

Turning to hTNF (ligand), the IC50 in assay [2] was 20 nM.
